Literature values, collected in publication PMC4826273.

Target: Dll-1 (Homo sapiens) (UniProt O00548)
Test: surface plasmon resonance

Sequence of UniProt O00548 (O00548 18-545): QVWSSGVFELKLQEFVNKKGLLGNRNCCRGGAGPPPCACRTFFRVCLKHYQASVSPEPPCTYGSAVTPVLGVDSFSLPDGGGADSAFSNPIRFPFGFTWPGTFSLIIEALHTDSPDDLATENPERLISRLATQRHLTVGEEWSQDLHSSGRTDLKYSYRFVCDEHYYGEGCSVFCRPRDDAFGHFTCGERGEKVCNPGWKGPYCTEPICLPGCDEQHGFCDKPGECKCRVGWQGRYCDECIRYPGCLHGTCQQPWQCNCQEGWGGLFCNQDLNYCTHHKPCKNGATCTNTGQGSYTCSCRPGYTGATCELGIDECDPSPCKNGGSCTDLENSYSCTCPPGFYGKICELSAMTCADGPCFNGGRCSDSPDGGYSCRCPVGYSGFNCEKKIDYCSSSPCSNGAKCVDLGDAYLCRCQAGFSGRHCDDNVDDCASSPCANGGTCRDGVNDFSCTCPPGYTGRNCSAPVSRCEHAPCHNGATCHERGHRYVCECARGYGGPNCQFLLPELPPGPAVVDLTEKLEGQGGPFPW

Notch1 (from UniProt P46531)
Kd: 130 µM
